IntAct's records for PubMed 38057552

B1: Sodium/glucose cotransporter 2 (Homo sapiens), P31639 (parent)
chain: MEEHTEAGSAPEMGAQKALIDNPADILVIAAYFLLVIGVGLWSMCRTNRGTVGGYFLAGRSMVWWPVGASLFASNIGSGHFVGLAGTGAASGLAVAGFEWNALFVVLLLGWLFAPVYLTAGVITMPQYLRKRFGGRRIRLYLSVLSLFLYIFTKISVDMFSGAVFIQQALGWNIYASVIALLGITMIYTVTGGLAALMYTDTVQTFVILGGACILMGYAFHEVGGYSGLFDKYLGAATSLTVSEDPAVGNISSFCYRPRPDSYHLLRHPVTGDLPWPALLLGLTIVSGWYWCSDQVIVQRCLAGKSLTHIKAGCILCGYLKLTPMFLMVMPGMISRILYPDEVACVVPEVCRRVCGTEVGCSNIAYPRLVVKLMPNGLRGLMLAVMLAALMSSLASIFNSSSTLFTMDIYTRLRPRAGDRELLLVGRLWVVFIVVVSVAWLPVVQAAQGGQLFDYIQAVSSYLAPPVSAVFVLALFVPRVNEQGAFWGLIGGLLMGLARLIPEFSFGSGSCVQPSACPAFLCGVHYLYFAIVLFFCSGLLTLTVSLCTAPIPRKHLHRLVFSLRHSKEEREDLDADEQQGSSLPVQNGCPESAMEMNEPQAPAPSLFRQCLLWFCGMSRGGVGSPPPLTQEEAAAAARRLEDISEDPSWARVVNLNALLMMAVAVFLWGFYA
partner: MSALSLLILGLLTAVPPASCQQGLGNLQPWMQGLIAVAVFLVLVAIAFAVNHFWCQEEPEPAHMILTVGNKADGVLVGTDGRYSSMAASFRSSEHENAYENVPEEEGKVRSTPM

Variants of: B1
Conditions: with pdz1i_human PDZK1IP1, Q13113

Effect of a mutation on the interaction, with no effect:
S74A
F98A
D201A
